Holding throughout (test): SPR
(In SPR one partner is held on a chip, and binding of the other changes the refractive index at the surface.)

In assay [1] the target is Igh^g2A10 mutant Fab J1/L114F with LC_Q106R (mouse).
For assay [2], the target named is Igh^g2A10 mutant Fab J2/L114F (mouse).
Assay [3] has as its target Igh^g2A10 mutant Fab J2/L114F with LC_Q106K (mouse).

The source of these data is article PMC10922795.

“recombinant PfCSP (from UniProt Q7K740 19-374) (natural protein)” came in with a fold increase in affinity over J1/L114F in assay [1] of 18.2 fold. In assay [2], the fold increase in affinity over the J2 UCA was 1.49 fold. The fold increase in affinity over J2/L114F in assay [3] came out at 65 fold.
